Article PMC4485828 (Oncoimmunology, 2015)

Tests used:
SEC [1] = molecular target: the molecule itself; experiment: SEC
SEC [2] = experiment: SEC

B1: GD2xCD3-HDD bispecific antibody dimer (GD2xCD3 tsc-BsAb with the HNF1α dimerization domain at the C-terminus) (bispecific antibody)
chain: QVQLQQSGPELVKPGASVKISCKTSGYKFTEYTMHWVKQSHGKCLEWIGGINPNNGGTNYNQKFKGKATLTVDKSSSTAYMELRSLTSEDSAVYYCARDTTVPYAYWGQGTTVTVSSGGGGSGGGGSGGGGSDIELTQSPAIMSASPGEKVTMTCSASSSISYMHWYQQKPGTSPKRWIYDTSKLASSVPARFSGSGSGTSYSLTISSMEAEDAATYYCHQRSSYPLTFGCGTKLEIKRASTKGPGGGGSGGGGSGGGGSQVQLVQSGGGVVQPGRSLRLSCKASGYTFTRYTMHWVRQAPGKGLEWIGYINPSRGYTNYNQKFKDRFTISRDNSKNTAFLQMDSLRPEDTGVYFCARYYDDHYCLDYWGQGTPVTVSSGGGGSGGGGSGGGGSDIQMTQSPSSLSASVGDRVTITCSASSSVSYMNWYQQTPGKAPKRWIYDTSKLASGVPSRFSGSGSGTDYTFTISSLQPEDIATYYCQQWSSNPFTFGQGTKLQITRTPLGDTTHTSGMVSKLSQLQTELLAALLESGLSKEALIQALGEGSGGAP
SEC [1]
  stoichiometry N: 2
SEC [2]
  percent dimeric (purity by HPLC-SEC): 97%
